Measured values taken from patent publication US20260193313A1 (ALPINE IMMUNE SCIENCES, published 2026).
Positions count from the first letter of the chain named. Names may count otherwise. Each block holds one molecule with its values, some of them ahead of it.

Tests used:
[1] = biological target: T1, CD28 (human, UniProt P10747 19-220); assay: flow cytometry, 11 nM Fc fusion on Jurkat cells
[2] = biological target: T2, CTLA-4 (human, UniProt P16410 36-223); assay: flow cytometry, 11 nM Fc fusion on CHO/CTLA4 transfectants
T2 construct: CHO cells transduced to stably express CTLA-4; also called huCTLA; CHO/CTLA-4
T2 sequence: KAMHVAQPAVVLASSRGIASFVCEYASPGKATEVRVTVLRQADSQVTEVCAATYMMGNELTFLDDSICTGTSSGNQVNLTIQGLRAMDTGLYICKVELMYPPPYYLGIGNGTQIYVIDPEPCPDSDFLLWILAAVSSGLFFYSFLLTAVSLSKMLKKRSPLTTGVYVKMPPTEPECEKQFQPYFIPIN

[3] = biological target: T1, CD28; assay: flow cytometry, 25 nM Fc fusion on Jurkat cells
Description: (§1) Binding of the CD86 domain variants described above were assayed for binding to CD28 using Jurkat cells or to CTLA-4 using Chinese Hamster Ovary (CHO) cells that were transduced to stably express CTLA-4 (CHO/CTLA-4). For staining by flow cytometry, approximately 100,000 ligand-expressing cells were incubated with various concentrations of each candidate CD86 variant Fc fusion protein. […] To assess binding, cells were stained with an anti-human Fc secondary antibody (Jackson ImmunoResearch, USA), and samples were analyzed on an LSRII (BD Biosciences, Inc., USA) flow cytometer.
(§2) In the Table, the exemplary amino acid substitutions and insertions in the IgV domain are designated by amino acid position number corresponding to amino acid positions in the respective reference unmodified mature CD86 extracellular domain (ECD) sequence set forth in SEQ ID NO:29. The amino acid position is indicated in the middle, with the corresponding unmodified (e.g. wild-type) amino acid listed before the number and the identified variant amino acid substitution listed after the number. Column 2 sets forth the SEQ ID NO identifier for each variant IgV domain contained in the variant IgV-Fc fusion molecule.

[4] = biological target: T1, CD28; assay: cell-based or functional assay
[5] = biological target: T2, CTLA-4; assay: flow cytometry, 25 nM Fc fusion on CHO/CTLA4 transfectants
Description: as §1, §2

[6] = biological target: T1, CD28; assay: flow cytometry, Jurkat cells expressing CD28, anti-Fc antibody-PE
Description: (§3) To assess binding activity, the exemplary formatted stack constructs were incubated with Jurkat cells expressing CD28, the cognate binding partner of CD86, and with K562 cells transduced to express PDL1, the cognate binding partner of PD-1. The cells (50,000 cells/well) were incubated on ice for 30 min with the formatted stack constructs set forth in Table E7 at various concentrations (starting concentration 100 nM, 8 serial 1:4 dilutions titrated down). Cells were then washed with FACS buffer and resuspended with 50 μL anti-Fc antibody-PE for 30 min. Binding was assessed by flow cytometry and Mean Fluorescence Intensity (MFI) was determined.

[7] = biological target: T3, PD-L1 (human, UniProt Q9NZQ7 19-290); assay: flow cytometry, K562 cells transduced to express PDL1, anti-Fc antibody-PE
T3 construct: also called huPD-L1
T3 sequence (Q9NZQ7 19-290): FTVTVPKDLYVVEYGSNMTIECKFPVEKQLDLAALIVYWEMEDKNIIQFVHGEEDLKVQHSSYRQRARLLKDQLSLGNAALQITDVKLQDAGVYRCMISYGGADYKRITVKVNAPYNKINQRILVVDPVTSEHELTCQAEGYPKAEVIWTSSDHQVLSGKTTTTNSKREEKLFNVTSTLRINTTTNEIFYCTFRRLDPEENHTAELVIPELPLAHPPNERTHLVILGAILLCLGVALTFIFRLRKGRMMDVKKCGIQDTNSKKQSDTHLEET
Description: as §3

T1 sequence (P10747 19-220): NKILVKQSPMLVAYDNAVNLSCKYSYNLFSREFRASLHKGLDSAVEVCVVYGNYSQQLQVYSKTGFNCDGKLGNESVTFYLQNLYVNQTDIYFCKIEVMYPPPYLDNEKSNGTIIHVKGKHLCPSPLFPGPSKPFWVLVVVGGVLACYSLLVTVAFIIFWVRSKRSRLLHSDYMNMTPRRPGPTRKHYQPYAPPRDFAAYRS

B3: formatted PD-1-CD86 stack, FIG. 14A format, SEQ ID NO: 327 homodimer (Fc fusion)
chain: DSPDRPWNPPTFSPALLVVTEGDNATFTCSFSNTSESFVLNWYRMSPSNQTDKLAAFPEDRNQPGQDRRFRVTQLPNGRDYHMSVDRARRNDSGTYLCGAITLAPKVQIDESLRVELRVTERGSGGGGSEPKSSDKTHTCPPCPAPEAEGAPSVFLFPPKPKDTLMISRTPEVTCVVVDVSHEDPEVKFNWYVDGVEVHNAKTKPREEQYNSTYRVVSVLTVLHQDWLNGKEYKCKVSNKALPAPIEKTISKAKGQPREPQVYTLPPSRDELTKNQVSLTCLVKGFYPSDIAVEWESNGQPENNYKTTPPVLDSDGSFFLYSKLTVDKSRWQQGNVFSCSVMHEALHNHYTQKSLSLSPGGGGGSGGGGSGGGGSGGGGSAPLKIQAYFNETADLPCQFANSQNLSLSELVVFWQDQENLVLNEVYLGKEKFDSVHSKYMGRTSFDSDSWTLRLHNLQIKDKGLYRCIILHKKPTGMIRIHQMSSELSVLA
notes: also called variant PD1 ECD - Fc - variant CD86 IgV
- binding result [6]: binds
- binding result [7]: binds

B4: formatted PD-1-CD86 stack, FIG. 14D format (heterodimer SEQ ID NOs 328 + 331) (Fc fusion)
chain 1: DSPDRPWNPPTFSPALLVVTEGDNATFTCSFSNTSESFVLNWYRMSPSNQTDKLAAFPEDRNQPGQDRRFRVTQLPNGRDYHMSVDRARRNDSGTYLCGAITLAPKVQIDESLRVELRVTERGSGGGGSEPKSSDKTHTCPPCPAPEAEGAPSVFLFPPKPKDTLMISRTPEVTCVVVDVSHEDPEVKFNWYVDGVEVHNAKTKPREEQYNSTYRVVSVLTVLHQDWLNGKEYKCKVSNKALPAPIEKTISKAKGQPREPQVYTLPPCREEMTKNQVSLWCLVKGFYPSDIAVEWESNGQPENNYKTTPPVLDSDGSFFLYSKLTVDKSRWQQGNVFSCSVMHEALHNHYTQKSLSLSPG
chain 2: B3 chain with Y263C, D270E, L272M, T280S, L282A, Y321V
notes: Knobs-into-hole heterodimer
- binding result [6]: binds
- binding result [7]: binds

B5: formatted PD-1-CD86 stack, FIG. 14C format (heterodimer SEQ ID NOs 328 + 330) (Fc fusion)
chain 1: B4 chain 1
chain 2: EPKSSDKTHTCPPCPAPEAEGAPSVFLFPPKPKDTLMISRTPEVTCVVVDVSHEDPEVKFNWYVDGVEVHNAKTKPREEQYNSTYRVVSVLTVLHQDWLNGKEYKCKVSNKALPAPIEKTISKAKGQPREPQVCTLPPSREEMTKNQVSLSCAVKGFYPSDIAVEWESNGQPENNYKTTPPVLDSDGSFFLVSKLTVDKSRWQQGNVFSCSVMHEALHNHYTQKSLSLSPGGGGGSGGGGSGGGGSGGGGSAPLKIQAYFNETADLPCQFANSQNLSLSELVVFWQDQENLVLNEVYLGKEKFDSVHSKYMGRTSFDSDSWTLRLHNLQIKDKGLYRCIILHKKPTGMIRIHQMSSELSVLA
notes: Knobs-into-hole heterodimer
- binding result [6]: binds
- binding result [7]: binds

B6: formatted PD-1-CD86 stack, FIG. 14A format, SEQ ID NO: 326 homodimer (Fc fusion)
chain: DSPDRPWNPPTFSPALLVVTEGDNATFTCSFSNTSESFVLNWYRMSPSNQTDKLAAFPEDRNQPGQDRRFRVTQLPNGRDYHMSVDRARRNDSGTYLCGAITLAPKVQIDESLRVELRVTERGSGGGGSEPKSSDKTHTCPPCPAPEAEGAPSVFLFPPKPKDTLMISRTPEVTCVVVDVSHEDPEVKFNWYVDGVEVHNAKTKPREEQYNSTYRVVSVLTVLHQDWLNGKEYKCKVSNKALPAPIEKTISKAKGQPREPQVYTLPPSRDELTKNQVSLTCLVKGFYPSDIAVEWESNGQPENNYKTTPPVLDSDGSFFLYSKLTVDKSRWQQGNVFSCSVMHEALHNHYTQKSLSLSPGGGGGSGGGGSGGGGSGGGGSAPLKIQAYFNETADLPCQFANSQNLSLSELVVFWQDQENLVLNEVYLGKEKFDSVHSKYMGRTSFDSDSWTLRLHNLQIKDKGLYRCIILHKKPTGMIRIHQMSSELSVLANFSQPEIVPISNITENVYINLTCSSIHGYPEPKKMSVLLRTKNSTIEYDGVMQKSQDNVTELYDVSISLSVSFPDVTSNMTIFCILETDKTRLLSSPFSIELEDPQPPPDHIP
notes: also called variant PD1 ECD - Fc - variant CD86 ECD
- binding result [6]: binds
- binding result [7]: binds

More lines, now with the values ahead:

- MFI [1]: 11.9
- Fold Increase over WT CD86 ECD [2]: 0.5 fold
- MFI [2]: 9360
Molecule: variant CD86 ECD-Fc Q25L/H90L/P185S/P224L (ECD SEQ ID NO: 116) (Fc fusion)

- MFI [3]: 20
B1: variant CD86 IgV-Fc M60K/H90L (IgV SEQ ID NO: 128) (Fc fusion)
chain: APLKIQAYFNETADLPCQFANSQNQSLSELVVFWQDQENLVLNEVYLGKEKFDSVHSKYKGRTSFDSDSWTLRLHNLQIKDKGLYQCIILHKKPTGMIRIHQMNSELSVLAGSGGGGSEPKSSDKTHTCPPCPAPEAEGAPSVFLFPPKPKDTLMISRTPEVTCVVVDVSHEDPEVKFNWYVDGVEVHNAKTKPREEQYNSTYRVVSVLTVLHQDWLNGKEYKCKVSNKALPAPIEKTISKAKGQPREPQVYTLPPSRDELTKNQVSLTCLVKGFYPSDIAVEWESNGQPENNYKTTPPVLDSDGSFFLYSKLTVDKSRWQQGNVFSCSVMHEALHNHYTQKSLSLSPG

- Fold Increase over WT CD86 ECD, Jurkat/IL2 Luciferase Assay (10 nM OKT3 + 50 nM CD86 IgV-Fc) [4]: 6.1 fold
- Relative luminescence units (RLU), Jurkat/IL2 Luciferase Assay (10 nM OKT3 + 50 nM CD86 IgV-Fc) [4]: 800 RLU
- Fold Increase over WT CD86 ECD [3]: 128 fold
- MFI [3]: 1570
- Fold Increase over WT CD86 ECD [5]: 1.3 fold
- MFI [5]: 4940
B2: variant CD86 IgV-Fc Q25L/Q86R/H90L (IgV SEQ ID NO: 126) (Fc fusion)
chain: B1 chain with Q25L, K60M, Q86R
